Reference: patent US20200087297A1 (Genentech, published 2020)
Values joined by “and” are separate entries in the source; they are usually repeats but may differ in a detail not shown here. Equal entries are not always repeated. Where two headings read alike, the source gives them in different places.

T1: NaPi2b (SLC34A2, type II sodium-dependent phosphate transporter 3b) (human, UniProt O95436 1-690)
T1 sequence (looked up): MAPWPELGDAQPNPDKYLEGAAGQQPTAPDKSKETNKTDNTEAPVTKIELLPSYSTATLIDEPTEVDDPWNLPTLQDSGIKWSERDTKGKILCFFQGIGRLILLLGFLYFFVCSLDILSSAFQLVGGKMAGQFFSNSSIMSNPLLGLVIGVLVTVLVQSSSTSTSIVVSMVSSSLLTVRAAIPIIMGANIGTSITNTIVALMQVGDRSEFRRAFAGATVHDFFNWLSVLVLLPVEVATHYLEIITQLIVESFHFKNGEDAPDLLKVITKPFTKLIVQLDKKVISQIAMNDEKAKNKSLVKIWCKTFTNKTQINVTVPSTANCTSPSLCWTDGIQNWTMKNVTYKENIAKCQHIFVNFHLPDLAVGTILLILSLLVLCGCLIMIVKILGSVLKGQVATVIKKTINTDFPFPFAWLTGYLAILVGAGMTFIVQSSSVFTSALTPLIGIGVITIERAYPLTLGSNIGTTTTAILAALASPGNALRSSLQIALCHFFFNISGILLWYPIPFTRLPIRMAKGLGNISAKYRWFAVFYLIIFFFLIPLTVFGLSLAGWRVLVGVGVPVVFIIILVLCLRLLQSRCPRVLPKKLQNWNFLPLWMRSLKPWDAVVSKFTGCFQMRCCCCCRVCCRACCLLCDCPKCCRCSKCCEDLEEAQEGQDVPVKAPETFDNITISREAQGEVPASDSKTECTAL

B1: Anti-Napi2b 10H1.11.4B LC K149C MC-Sq-Cit-PAB-Tubulysin M (antibody, DAR 1, V domains shown)
VH: EVQLVESGGGLVQPGGSLRLSCAASGFSFSDFAMSWVRQAPGKGLEWVATIGRVAFHTYYPDSMKGRFTISRDNSKNTLYLQMNSLRAEDTAVYYCARHRGFDVGHFDFWGQGTLVTVSS
VL: DIQMTQSPSSLSASVGDRVTITCRSSETLVHSSGNTYLEWYQQKPGKAPKLLIYRVSNRFSGVPSRFSGSGSGTDFTLTISSLQPEDFATYYCFQGSFNPLTFGQGTKVEIKR
B2: Anti-Napi2b 10H1.11.4B LC K149C MC-Sq-Cit-PAB Dolastatin 10 (antibody, DAR 1, V domains shown)
VH: B1 VH
VL: B1 VL

Key:
[1] = target: T1, NaPi2b (SLC34A2, type II …); experiment: cell-based or functional assay
[2] = target: T1, NaPi2b (SLC34A2, type II …); experiment: cell-based or functional assay; remark: listed apart in the source

Row | Binder | IGROV-1 IC50 (EdU Prolif assay) [1] | OVCAR-3x2.1 IC50 (EdU Prolif assay) [1] | IGROV-1 IC50 (EdU Prolif assay) [2] | OVCAR-3x2.1 IC50 (EdU Prolif assay) [2]
1 | B1 | 2.07 nM and 310 ng/mL | 151 ng/mL and 1 nM |  | 
2 | B2 |  |  | 3.19 nM and 478 ng/mL | 1.52 nM and 228 ng/mL
